Measured values reported in the nanobody polyreactivity screen of Harvey et al. (2022).

Test: yeast display, Sf9 membrane polyspecificity reagent, FACS + sequencing; frameworks hold sequencing errors
How it was run: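 Sorting gates, low and high (top ~1%), were placed on anti-HA fluorescence to track expression and on streptavidin fluorescence to track reagent binding. A clone's polyreactivity label is taken from the gate it came out of. The reagent was 10% biotinylated, detergent-solubilized Sf9 membrane, applied for 1 hour at 4 °C to galactose-induced yeast display cells.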

Sequence | polyreactivity (PSR sort gate)
QVQLVESGGGLVQAGCSLRLSWAASGNIFKGYAMGWSRQAPGKERELVAAISKSGGSTYYADSVKGRFTISRDNAKNTVYLQMNSLKPEDTAVYYCNTYTYAGYNFWGQGTQVTVSS | high polyreactivity
QVQLVESGGGLVQAGDSLRLSCGASGRTFYPYAMGWYRQAPGKERELVAAITWSGGSTYYADSVKGRFTISRDNAKNTVYLQMNSLKPEDTAVYFCNAAELTYDLYDYCGQGTQVTVSS | low polyreactivity
QVQLVESGGGLVQAGGCLRLSCAASGRIFTTNPMGWYRPAPGKERELVARITYSGTSTYYADSVKGRFTISRDNAMNTVYLQMNSLKPEDTAVYYCAAKVWWRKYQLLDYYYWGQGTQVTVSS | high polyreactivity
QVQLVESGGGLVQAGGCLRLSCAASGRILYYYAMGWYRQAPGKERELVAAINSSGGSTYYADSVKGRFTISRDNAKNTVYLQMNSLKPEDTAVFYCAALRGNVLWYPPSYFRYDYWGQGTQVTVSS | high polyreactivity
QVQLVESGGGLVQAGGCLRLSCAASGRTFPRYAMGWYIQAPGKVRELVAVISFSGDSTSYADSVKGRFTISRDTAKNTVYIQMNSRKPEDTAVYYCIADYKSTVFRYSGSRNYWGQGTQVTVSS | low polyreactivity
QVQLVESGGGLVQAGGCLRLSCAASGSIFCVYVMGWYRQEPVKERELVAAITRGASTNYADSVKGRFTISRDNAKNTVYLQMNSLKPEDTAVYYCAARQVSVSGHQYGYWGQGTQVTVSS | low polyreactivity
QVQLVESGGGLVQAGGCLRLSCAASGSIFDYYTMGWYREAPGNEREFVAGISDSGGSTTYADSVKGRFTISRDNAKNTVYLQMNSLKPEDTAVYYCNAEYVGWFYKYDYWGQGTQVTVSS | high polyreactivity
QVQLVESGGGLVQAGGCLRLSCAASGSTFYGYAMGWYRQAPGKERELVAAISRIGSSTYYADSVKGRFTISRDNAKITVYLQMNSLKPEDTAVYYCAADTWKVFGVDYWGQGTQVSVSS | high polyreactivity
QVQLVESGGGLVQAGGCLRLSGAASVYTYRKYAMGWSRQAPGNERELVAAISASGGSTYYADSVKGRFTISRDKAKNTVYLPMNSLKPEDTAVYYCAKVPVTVYSRPFDYWGQGTQVTVSS | high polyreactivity
QVQLVESGGGLVQAGGGLRLSCAASGTFKRNAMGWYRQAPGKERELVATITRTGSTTYADSVKGRFTISRDNAKNTVYLQMNSLKPEDTAVYYCAAGYPPEDPEDYWGQGTQVTVSS | low polyreactivity
QVQLVESGGGLVQAGGILLLSCAASGRTFRVNTMGWYRQAPGTESELVAAISYSGASTYYADSVKGRFTISRDNAKNTVYLQMNSLKPEDTAVYYCAAAVGVALNDYWGQGTQVTVSS | high polyreactivity
QVQLVESGGGLVQAGGILRISCAASGFIFWKNAMGWYRQAPGKERELVAAISRGGSTYYADSVKGRFTISRDNAKKTVYLQMNSLKPEDTAFYYCNKVGGATDKYLYYYWGQATQVTVSS | high polyreactivity
QVQLVESGGGLVQAGGILRLICAASGLTFYRYAMGWYRQAPGKERELVAAINSRGSTYADSVKGRFTISRDNAKNTVYFQMNSLKPEDSAVYYCAARGRYRLYGYWGQVTQVTVSS | high polyreactivity
QVQLVESGGGLVQAGGILRLICAASGSTFPYNAMGWYRQAPGKERELVAAISSGGSTYYADSVNGRFTISRDNAKNTVYLELNSQKPEDTAVYYCAASLGKYIRSLGYGYWGQGTQVTVSS | high polyreactivity
QVQLVESGGGLVQAGGILRLSCAASGFIFALNAMGWYRQAPGKERELVATIDSTSGSTYYADSVKGRFTISRDNAKNTVYLQMNSLKPEDTAVYYCAVVHAQSAPMDYWGQGTQVTVSS | low polyreactivity
QVQLVESGGGLVQAGGILRLSCAASGFIFKSYAMGWYRQAPGKERELVAGITRRGGSTYYADSVKGRFTISRDNAKNTVYLQMNILKPEDTAVYYCNAGRKTADYDFLGQGTQVTVSS | high polyreactivity
QVQLVESGGGLVQAGGILRLSCAASGFNFSSYAMAWYRQAPGKERELVAAISGSGGTTYYADSVKGRFTISRDNANNTVYVLMNSLKPEDTAVYYCATRRGLVITKYGYDYWGQGTQVTVSS | high polyreactivity
QVQLVESGGGLVQAGGILRLSCAASGFTFYRNAMGWYRQAPGKERELVAAISIRSGRTYYADSLKGRFTISRDNAKNSVYLQMNSLKPEDTAVYYCNKVRLPRDPYNYWGQGTQVTVSS | high polyreactivity
QVQLVESGGGLVQAGGILRLSCAASGGIFSVYAMGWYRQAPGKERELVASITVSGGSTSYADSVKGRFTISRDNAKNTVYLQMNCLKPEDTAVYYCAADLLRYFGYYDYDSWGQGTQVTVSS | low polyreactivity
QVQLVESGGGLVQAGGILRLSCAASGITFKPYGMGWYRQAHGKESELVADITSGGITYYADSVKGRFTISRDNAKNTVYLQMNSLIAEDTAVYFCATGDLFVYYWGYVVRLYDFWGQGTQVTVSS | low polyreactivity
QVQLVESGGGLVQAGGILRLSCAASGLTFNYYDMGWYRQAPGKERELVAAISRSGTNTSYADSVKGRFTISRDNAKNTVYLQMNSLKPEDTAVYYCNSAGVYLAAGPYTANFNYNYWGQGTQVTVSS | low polyreactivity
QVQLVESGGGLVQAGGILRLSCAASGNIFPINAMGWYRQAPGKEREFVAAITRSGSRTYYADSVKGRFTISRDNAKNTVYLQMNSLKKEDTAVYYCADRGNSTPVYSRYGYWGQGTQVTVSS | low polyreactivity

Sequence | polyreactivity (PSR sort gate)
QVQLVESGGGLVQAGGILRLSCAASGRIFAYYAMGWSRQAPGKERELVAAISGGGGSTYYADSVKGRFTISRDNAKNTVYLQMNSLKPEDTAVYYCAAKSSRYDYYYWGQGTQVTVSS | high polyreactivity
QVQLVESGGGLVQAGGILRLSCAASGRIFKYNAMGWYRQAPGKERELVAVITSGGSTYYADSVKGRFTISRDNAKNTVYLQMNSLKPEDTAVYYCAKKYYKVHKFDYCGQGTQVTVSS | low polyreactivity
QVQLVESGGGLVQAGGILRLSCAASGRIFRGYAMGWYIQAPAKERELVASIDWNGGRTYYADSEKGRFTISRDNAKNTVYLQMNSLKPEDTAVYYCAVLPYRTLYNYYYWGQGTQVTVSS | high polyreactivity
QVQLVESGGGLVQAGGILRLSCAASGRIFRYYAMGWYRQAPGKERELVAGITRGGTTNYADSVKGRFTISRDNAKNTVYLQMNSLKPEDTAVYYCAAETRRGIIGYDYWGQGTKVTVSS | high polyreactivity
QVQLVESGGGLVQAGGILRLSCAASGRIFSSYSMGWYRQAPGKESELVAAISRSGARTYYADSVKGRFTISRDYAKNTVYLQMNSLKPEDTAVYYCAAVTVAGYDYWGQGTQVTVSS | high polyreactivity
QVQLVESGGGLVQAGGILRLSCAASGRIFTPYTMGWYRQAPGKERELVATITWSGGSTYYADSVKGRFTISRDNAKNTVYLQMNSLKPEDTAVYYCAARPIYVWAEYDYWGQGTQVTVSS | low polyreactivity
QVQLVESGGGLVQAGGILRLSCAASGRIFYNYAMGWYRQAPGKERELGAAISGSGGSTYYADSVKGRFTISRDNAKNTVYLQMNSLKPEDTAVYYCSTSGPQYDSRNFDYWGQGTQVTVSS | low polyreactivity
QVQLVESGGGLVQAGGILRLSCAASGRIINIYAMGWYRQAPGKEREMVAAISGSGGRTSYADSVKGRFTFSRDNAKNTVYLQMNILKPEDTAVYYCAADYSYYTSFRYDYWGQGTQVTVSS | low polyreactivity
QVQLVESGGGLVQAGGILRLSCAASGRILVSYAMGWYRQAPGKERELVAAISRSGGSTYYADSVKGRFTISRDNAKNTVYLQMNSLKPEDTAVYYCNVYRFSRYDYWGQGTQVTVSS | high polyreactivity
QVQLVESGGGLVQAGGILRLSCAASGRTFYINGMGWYRQAPGKEREFVASITWRGGRTYYADSVKGRFTISRDNAKNTVYLQMNSLKPEDTAVYYCIAVGLGGRAPSRWYTHYYCGQGTQVTVSS | high polyreactivity
QVQLVESGGGLVQAGGILRLSCAASGRTLSKNAMGWYRQAPGKERELVATISSVGRTNYADSVKGRFTISRDNEKITVYLQMISLKPEDTAVYYCSARRFRGSYYWGQGTQVTVSS | high polyreactivity
QVQLVESGGGLVQAGGILRLSCAASGRTVHNYVMAWYRQAPWNERELVAAITAGVGSTYYADSVKGRFTISRDNAKNTVYFQMNSLKPEDTAVYYCAARKVWGYTYGYPYYYWGQGTQETVSS | high polyreactivity
QVQLVESGGGLVQAGGILRLSCAASGSIFGLYAMVWYRQAPGKERELVAAISPRGGSTYYADSVKGRFTISRDNAKNTVYLQMNILKPEDTAVYYCNRDYIRYALGHDYWGQGPQVTVSS | high polyreactivity
QVQLVESGGGLVQAGGILRLSCAASGSIFRQNPMGWYRKAPGKERELVAAISSGGSTYYADSVKGRFTISRDNAKNNVYLQRNSLKPEDTAVYYCAAYHSFVWGDDYWGQGTQVTVSS | low polyreactivity
QVQLVESGGGLVQAGGILRLSCAASGSIFRVYAMGWYRQAPGKERELVAGITSTGTRTYYADSVKGRFTISRDNAKNPVSLQKNSLKPEDTAVYYCAARDTYRKAYYYWGHGTQVTVSS | high polyreactivity
QVQLVESGGGLVQAGGILRLSCAASGSIFVKYTMGWYRQAPGKERELVAAISFRGGSTYYADSVKGRFTISRDNAKNTVYLQMNSLKPEDTAVYYCNADGGWWPEYYWGQGTQVTVSS | low polyreactivity
QVQLVESGGGLVQAGGILRLSCAASGSIIYVNAMGWYRQAPGKERELVAAISVRGGRTYYADSVKGRFTISRDNAKNSVYLQMISLKPEDTAVYDCAAGWYYYARPRVYNAREYYYWGQGTQVNVSS | high polyreactivity
QVQLVESGGGLVQAGGILRLSCAASGSIVSYYDMGWYRQAPGKERELVAAITYTGGSTYYADSVKGRFTISRDNAKNTVYLQMNSLKPEDTEVYYCAAQWTIYPLFNSWGQGNQVTVSS | low polyreactivity
QVQLVESGGGLVQAGGILRLSCAASGSNFGYYVMGWYRQAPGKERELVAGISTGGSTYYADSVKGRFTISRDNAKNTVYLQMNSLKPEDTAVYYCAADYTLSYWGFVYWGQGTQVTVSS | low polyreactivity
QVQLVESGGGLVQAGGILRLSCAASGSTFESNTMGGYRQAPGKERELVAAISYSGGRTYYADSVKGRFTISRDNAKNTVYLQMNSLKPEDTAVYYCAARWSVSYHYWGQGTQVTVSS | high polyreactivity
QVQLVESGGGLVQAGGILRLSCAASGSTFVPNTMAWYRQAPGKERELVAAITYSGGSTYYADSVKGRFTISRDNAKNTVYLQMNSLKPEDTAVYYCAAEGTTWYYDMDYWGQGTQVTVSS | low polyreactivity
